The values below come from publication PMC1543650.

Experiment [1] deals with Fc-gp120 WT (human IgG1 Fc fused N-terminal to full-length wild-type gp120 of HIV-1 JR-CSF) (HIV-1 JR-CSF). The experiment is described as follows: flow cytometry on cells. For orientation: In flow cytometry, cells or beads pass a laser one at a time.
The target of experiment [2] is Fc-gp120 ΔV1V2 (HIV-1 JR-CSF). The experiment is described as follows: flow cytometry on cells.
For experiment [3], the target named is Fc-gp120 ΔV1V2V3 (HIV-1 JR-CSF). Briefly: flow cytometry on cells.
Experiment [4] addresses Fc-gp120 ΔV3 (HIV-1 JR-CSF). Briefly: flow cytometry on cells.
Experiment [5] concerns the target Fc-DC-SIGN (entire ectodomain of DC-SIGN fused in-frame with the Fc region of IgG1) (UniProt Q9NNX6). Briefly: ELISA.
Sequence of UniProt Q9NNX6 (Q9NNX6 59-404): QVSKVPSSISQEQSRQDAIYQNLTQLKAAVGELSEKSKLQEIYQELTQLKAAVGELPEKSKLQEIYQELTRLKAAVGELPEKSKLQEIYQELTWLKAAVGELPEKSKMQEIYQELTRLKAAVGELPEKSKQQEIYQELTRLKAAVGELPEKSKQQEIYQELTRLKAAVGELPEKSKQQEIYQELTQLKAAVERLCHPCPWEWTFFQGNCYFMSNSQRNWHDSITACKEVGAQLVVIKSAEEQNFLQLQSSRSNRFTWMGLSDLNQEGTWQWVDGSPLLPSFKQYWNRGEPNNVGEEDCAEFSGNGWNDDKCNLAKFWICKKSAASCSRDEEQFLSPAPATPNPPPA

With “4-domain recombinant soluble CD4 (domain or fragment)”, the % inhibition of Fc-gp120 binding to CEM cells at 10 μg/ml sCD4 came out at 100% in experiment [1], 100% in experiment [2], 50% in experiment [3] and 100% in experiment [4].

In experiment [5], biotinylated Fc-gp120 (Fc fusion) yielded an IC50 of 17 pM.

For orientation: IC50 means the point on the concentration scale where inhibition reaches its midpoint. A lower IC50 goes with greater potency.
